In paper PMC8534323:

How the values were obtained:
[1] = target: enolase (Eno1) (C. albicans (endogenous in strain ATCC 10231)) (UniProt P30575); assay: SPR
[2] = target: triosephosphate isomerase 1 (Tpi1) (C. albicans (endogenous in strain ATCC 10231)) (UniProt Q9P940); assay: SPR
[3] = target: Phosphoglycerate mutase 1 (Gpm1), recombinant (C. albicans) (UniProt P82612); assay: SPR
[4] = target: Als3 (agglutinin-like sequence protein 3), isolated from the surface of C. albicans (C. albicans (endogenous in strain ATCC 10231)) (UniProt Q59L12); assay: SPR
[5] = target: enolase (Eno1) (C. albicans (endogenous in strain ATCC 10231)) (UniProt P30575); assay: ELISA-like microplate ligand-binding assay; fungal protein immobilised on the microplate, soluble fluorescent-labeled histones; saturation one-site binding model
[6] = target: Phosphoglycerate mutase 1 (Gpm1), recombinant (C. albicans) (UniProt P82612); assay: as above
[7] = target: Als3 (agglutinin-like sequence protein 3), isolated from the surface of C. albicans (C. albicans (endogenous in strain ATCC 10231)) (UniProt Q59L12); assay: as above

Phosphoglycerate mutase 1 (Gpm1), recombinant (C. albicans), sequence (P82612 whole entry): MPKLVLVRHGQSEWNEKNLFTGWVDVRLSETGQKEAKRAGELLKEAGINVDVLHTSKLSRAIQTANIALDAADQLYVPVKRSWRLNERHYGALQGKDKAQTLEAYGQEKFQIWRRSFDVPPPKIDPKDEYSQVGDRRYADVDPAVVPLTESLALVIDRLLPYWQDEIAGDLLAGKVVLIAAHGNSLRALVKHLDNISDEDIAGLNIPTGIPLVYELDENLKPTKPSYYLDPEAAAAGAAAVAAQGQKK
triosephosphate isomerase 1 (Tpi1) (C. albicans (endogenous in strain ATCC 10231)), sequence (Q9P940 whole entry): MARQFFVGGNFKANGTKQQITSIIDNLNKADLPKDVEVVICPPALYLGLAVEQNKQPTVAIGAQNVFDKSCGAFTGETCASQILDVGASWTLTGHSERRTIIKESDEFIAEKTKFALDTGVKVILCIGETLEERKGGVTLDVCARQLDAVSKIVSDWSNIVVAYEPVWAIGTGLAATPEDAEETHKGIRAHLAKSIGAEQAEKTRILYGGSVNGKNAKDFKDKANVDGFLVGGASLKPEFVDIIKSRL

Row | Substance | Kd [1] | Kd [2] | Kd [3] | Kd [4] | Kd [5] | Kd [7] | further results
1 | myeloperoxidase (MPO) (enzyme) | 0.0787 µM | 0.045 µM | 0.353 µM | 0.0116 µM | – | – | –
2 | lactotransferrin (LF) (from UniProt P02788 20-710) (natural protein) | – | – | – | 0.0859 µM | – | – | –
3 | histone H3 (from UniProt P68431 1-136) (natural protein) | – | – | – | – | 1.23 µM | 0.0234 µM | Kd [6]: 0.258 µM
4 | histone H2 (from UniProt P0C0S8 1-130) (natural protein) | – | – | – | – | 0.911 µM | 1.79 µM | –
5 | LL-37(7)Cit (peptide) | – | – | – | – | – | – | decrease of binding against native LL-37 [1]: 50%; loss of binding against native LL-37 [3]: 75%; decrease of binding against native LL-37 [4]: 50%
6 | cathelicidin-derived peptide LL-37 | 0.0146 µM | 0.0683 µM | 0.598 µM | 0.228 µM | – | – | –
